Results on one molecule are retold here after US20100278838A1, “EPHA2 MONOCLONAL ANTIBODIES AND METHODS OF USE THEREOF” (MEDIMMUNE, LLC, priority 2002, published 2010).

Experiment [1] has as its system MDA-MB-231 breast cancer cells implanted orthotopically. Nature of the experiment: Tumor growth in vivo, MDA-MB-231 implanted orthotopically. Also noted: species or system athymic mice. The following applies: 6mg/kg intraperitoneally twice a week for 3 weeks; versus PBS or 1A7. On the procedure: FIGS. 7A-7D: The EphA2 antibodies, EA2, Eph099B-208.261, and Eph099B-233.152, inhibit tumor cell growth in vivo. MDA-MB-231 breast cancer cells were implanted (A) orthotopically or (B) subcutaneously into athymic mice. (C) A549 lung cancer cells were implanted subcutaneously into athymic mice. After the tumors had grown to an average volume of 100 mm^3, mice were administered 6 mg/kg of the indicated antibody or negative control (PBS or 1A7 antibody) intraperitoneally twice a week for 3 weeks. Tumor growth was assessed and expressed as a ratio of the tumor volume divided by initial tumor volume (100 mm^3). (D) MDA-MB-231 breast cancer cells were implanted subcutaneously into athymic mice. After the tumors had grown to an average volume of 100 mm^3, mice were administered 6 mg/kg of the indicated antibody or negative control intraperitoneally twice a week for 3 weeks. Total tumor volume was determined after sacrifice. Negative control is black, EA2 is white, Eph099B-208.261 is dark grey, and Eph099B-233.152 is light grey.
5×10^6MDA-MB-231 breast cancer cells were implanted orthotopically or subcutaneously and 5×10^6 A549 lung cancer cells were implanted subcutaneously into athymic mice. […] Tumor growth was assessed and expressed either as a ratio of the tumor volume divided by initial tumor volume (100 mm^3) or as total tumor volume. […]

In experiment [2] the test system is control MCF-7 cells. Kind of experiment: Soft agar colonization of control MCF-7 cells. Type of experiment: cell-based. To be noted: EA2 10 μg/ml, tamoxifen 1 μM. On the procedure: FIGS. 11A-11B: EphA2 overexpression decreases tamoxifen sensitivity. (A) 1×10^5 MCF-7 or MCF-7^EphA2 cells were suspended in soft agar in the presence of 1 μM tamoxifen (TAM) and or 1 μM 17β-estradiol and colony formation was evaluated microscopically after 14 days. (B) MCF-7 (circles) or MCF-7^EphA2 cells (squares) were implanted into the mammary fatpad (n=15 mice per group) in the presence of supplemental estrogen. Tamoxifen treatment was initiated 17 days post-implantation. Tumor volume of tamoxifen treated (black circles and squares) and saline treated (white circles and squares) animals was measured at the indicated time.
FIGS. 13A-13C: EphA2 agonistic antibody EA2 decreases malignant growth. MCF-7^EPhA2 cells were incubated in the presence of 3 μg/ml of EA2 for the time indicated prior to sample extraction and western blot analyses with an EphA2-specific antibody (D7). […]
EphA2 overexpression increased malignant growth (FIGS. 8A-8B). […] Colony formation in soft agar was performed as previously described (Zelinski et al., 2001, Cancer Res. 61:2301-6) and scored microscopically, defining clusters of at least three cells as a positive. […] Error bars represent the standard error of the mean of at least three different experiments as determined using Microsoft Excel software.
Sensitivity of MCF-7^EphA2 cells to tamoxifen was measured. […]

Experiment [3] addresses EphA2 (Homo sapiens, UniProt P29317). Nature of the experiment: EphA2 expression level in MCF-7^EphA2 cells after EA2 (western blot). Type of experiment: cell-based. The following applies: 3 μg/ml EA2. On the procedure: FIGS. 13A-13C: EphA2 agonistic antibody EA2 decreases malignant growth. MCF-7^EPhA2 cells were incubated in the presence of 3 μg/ml of EA2 for the time indicated prior to sample extraction and western blot analyses with an EphA2-specific antibody (D7). (B) The membrane was stripped and re-probed with a β-catenin-specific antibody as a loading control. (C) 1×10^5 control or MCF-7^EphA2 cells were suspended in soft agar in the presence or absence of tamoxifen (TAM, 1 μM) and EphA2 agonistic antibody (EA2, 10 μg/ml).
Growth MCF-7^EphA2 cells which had decreased EphA2 expression levels was assayed in soft agar. The EphA2 monoclonal antibody EA2 induced EphA2 activation and subsequent degradation. […] Whereas EA2 decreased soft agar colonization (by 19%), the combination of EA2 and tamoxifen caused a much more dramatic (>80%) decrease in soft agar colonization.
A general note: Immunoblotting shows a protein as a band on a membrane.

The test system of experiment [4] is EphA2 on non-transformed MCF-10A cells. Nature of the experiment: Flow cytometry of EA2 binding, non-transformed cells with or without EGTA. In kind it is cell-based. To be noted: 10 μg/ml EA2; 4 mM EGTA 10-15 minutes on ice. How it is done: (A, B) Non-transformed MCF-10A cells were labeled with EA2 at 4° C. either before (A) or after (B) treatment with EGTA and prior to fixation and immunolabeling with fluorophore-conjugated anti-mouse IgG. (C, D) Non-transformed MCF-10A (C) or transformed MDA-MB-231 (D) cells were labeled with EA2 either before (middle) or after (top) treatment with EGTA. Control cells were incubated with secondary antibody alone (bottom). The amount of EA2-EphA2 binding was measured using flow cytometry.
An equivalent experiment was performed using MCF-10A or MDA-MB-231 cells. The amount of EA2 binding to EphA2 was measured using flow cytometry (FIGS. 17C-17D). Cells were either treated by incubation in 4 mM EGTA for 10-15 minutes on ice (top panel) or were not treated with EGTA (middle panel) before incubation with 10 μg/ml EA2. Cells were then fixed with 3% formalin and labeled with fluorophore-labeled donkey anti-mouse IgG. Control cells were incubated only with secondary antibody (fluorophore-labeled donkey anti-mouse IgG) in the absence of primary antibody (EA2) (bottom panel). The samples were then evaluated using flow cytometry (Becton Dickinson FACStar Plus).
In general terms: Flow cytometry measures light scatter and fluorescence of single cells or particles in a stream.

Bounds are passed on as bounds.

EphA2, sequence (P29317 24-976): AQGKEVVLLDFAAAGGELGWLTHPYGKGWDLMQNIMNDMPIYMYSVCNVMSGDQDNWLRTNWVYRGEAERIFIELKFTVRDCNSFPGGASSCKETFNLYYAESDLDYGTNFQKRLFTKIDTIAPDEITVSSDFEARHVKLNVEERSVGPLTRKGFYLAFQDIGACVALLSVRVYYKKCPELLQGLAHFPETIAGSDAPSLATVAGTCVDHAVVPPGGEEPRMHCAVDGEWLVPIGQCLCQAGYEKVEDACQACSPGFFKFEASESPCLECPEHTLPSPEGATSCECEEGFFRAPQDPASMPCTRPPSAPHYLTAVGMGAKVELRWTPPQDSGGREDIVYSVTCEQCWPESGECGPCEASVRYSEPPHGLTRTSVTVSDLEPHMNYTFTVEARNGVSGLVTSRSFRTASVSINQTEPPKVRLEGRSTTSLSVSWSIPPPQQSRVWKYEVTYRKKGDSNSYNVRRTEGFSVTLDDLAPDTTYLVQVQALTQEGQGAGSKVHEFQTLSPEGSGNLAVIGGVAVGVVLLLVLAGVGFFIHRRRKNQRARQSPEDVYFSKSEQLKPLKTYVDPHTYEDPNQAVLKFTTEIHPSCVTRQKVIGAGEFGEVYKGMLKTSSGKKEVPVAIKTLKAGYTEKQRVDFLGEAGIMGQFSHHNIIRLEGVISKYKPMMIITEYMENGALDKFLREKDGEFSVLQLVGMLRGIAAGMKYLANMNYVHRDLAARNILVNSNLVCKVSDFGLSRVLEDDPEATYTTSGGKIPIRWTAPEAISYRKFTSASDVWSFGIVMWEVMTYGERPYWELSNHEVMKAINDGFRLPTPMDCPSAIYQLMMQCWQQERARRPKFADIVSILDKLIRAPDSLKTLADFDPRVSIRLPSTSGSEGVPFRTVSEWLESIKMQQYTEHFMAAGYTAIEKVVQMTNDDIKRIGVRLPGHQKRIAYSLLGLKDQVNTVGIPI

B1: EA2: EphA2 agonistic monoclonal antibody; ATCC deposit no. PTA-4380; co-pending application Ser. No. 10/436,783; VL SEQ ID NO:33, VH SEQ ID NO:37 (antibody, listed as Homo Sapiens, V domains shown)
VH: DVKLVESGGGLVKPGGSLKLSCAASGFTFSSYTMSWVRQTPEKRLEWVATISSGGTYTYYPDSVKGRFTISRDNAKNTLYLQMSSLKSEDTAMYYCTREAIFTYWGQGTLVTVSA
VL: DIKMTQSPSSMYASLGERVTITCKASQDINNYLSWFQQKPGKSPKTLIYRANRLVDGVPSRFSGSGSGQDYSLTISSLEYEDMGIYYCLKYDEFPYTFGGGTKLEIK
Turning to B1, the “Growth of MDA-MB-231 cells implanted orthotopically” value in experiment [1] was “inhibited”. The “Effect of EA2 on tamoxifen response of control MCF-7 cells in soft agar” value in experiment [2] is “did not further alter this response”. Moreover, in experiment [3], the EphA2 expression level result was “Decreased levels of EphA2 expression were observed within two hours” and the “Time EphA2 remained undetectable” value is no less than 24 h. Besides, the “Effect of EGTA treatment on EA2 binding, non-transformed cells” value in experiment [4] is reported as “increased by incubation in EGTA”.
